T1: AfERG10A (Aspergillus fumigatus, UniProt B0XMC1)
T1 construct: gene erg10A; pGEX-6P1 GST tag cleaved by PreScission; E. coli BL21(DE3)/pLysS; homotetramer
T1 sequence (B0XMC1 36-433): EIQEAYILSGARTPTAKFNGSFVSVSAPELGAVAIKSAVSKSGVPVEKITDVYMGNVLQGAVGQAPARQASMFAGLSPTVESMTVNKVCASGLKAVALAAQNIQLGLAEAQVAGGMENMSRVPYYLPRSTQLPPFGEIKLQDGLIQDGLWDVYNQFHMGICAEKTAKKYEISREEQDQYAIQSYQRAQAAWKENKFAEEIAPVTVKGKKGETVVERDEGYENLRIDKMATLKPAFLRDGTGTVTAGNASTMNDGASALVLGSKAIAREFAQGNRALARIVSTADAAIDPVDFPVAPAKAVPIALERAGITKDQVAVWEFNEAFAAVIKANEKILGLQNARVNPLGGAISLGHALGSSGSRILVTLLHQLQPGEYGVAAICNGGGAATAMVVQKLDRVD

B1: Aspergillus fumigatus acetyl-CoA acetyltransferase AfERG10A (residues 36 to 433) (enzyme, UniProt B0XMC1 36-433, looked up)
chain: EIQEAYILSGARTPTAKFNGSFVSVSAPELGAVAIKSAVSKSGVPVEKITDVYMGNVLQGAVGQAPARQASMFAGLSPTVESMTVNKVCASGLKAVALAAQNIQLGLAEAQVAGGMENMSRVPYYLPRSTQLPPFGEIKLQDGLIQDGLWDVYNQFHMGICAEKTAKKYEISREEQDQYAIQSYQRAQAAWKENKFAEEIAPVTVKGKKGETVVERDEGYENLRIDKMATLKPAFLRDGTGTVTAGNASTMNDGASALVLGSKAIAREFAQGNRALARIVSTADAAIDPVDFPVAPAKAVPIALERAGITKDQVAVWEFNEAFAAVIKANEKILGLQNARVNPLGGAISLGHALGSSGSRILVTLLHQLQPGEYGVAAICNGGGAATAMVVQKLDRVD
notes: AfERG10A (AFUB_000550), mitochondrial acetyl-CoA acetyltransferase of Aspergillus fumigatus, whole protein 433 amino acids; Cloned from cDNA into pGEX-6P1 with primers P13/P14; After PreScission cleavage a few vector residues probably remain at the N-terminus; Primer P13 carries a Lys codon (AAA) before GAG (Glu), so the construct may begin one residue earlier or have an added Lys; also called …

Legend:
[1] = target: T1, AfERG10A; assay: X-ray crystal structure of the complex, […] Å; conditions: crystals from 0.1 M HEPES pH 7.0, 2 M ammonium sulfate with CoA; CoA binding site
[2] = substrate: CC(=O)CC(=O)SCCNC(=O)CCNC(=O)[C@H](O)C(C)(C)COP(=O)(O)OP(=O)(O)OC[C@H]1O[C@@H](n2cnc3c(N)ncnc32)[C@H](O)[C@@H]1OP(=O)(O)O; assay: Mg2+ method, degradative (thiolysis) reaction, steady-state kinetics; assay type: biochemical, Aspergillus fumigatus; conditions: CoA co-substrate (60 μM in the mixture as printed), 50 mM Tris-HCl pH 8.1, 20 mM MgCl2, 40 mM KCl, 30°C
Source text: (§1) Mg2+ method, degradative (thiolysis) reaction, steady-state kinetics on AfERG10A

[3] = substrate: CC(C)(COP(=O)(O)OP(=O)(O)OC[C@H]1O[C@@H](n2cnc3c(N)ncnc32)[C@H](O)[C@@H]1OP(=O)(O)O)[C@@H](O)C(=O)NCCC(=O)NCCS; assay: as above; assay type: biochemical, Aspergillus fumigatus; conditions: acetoacetyl-CoA co-substrate (10 μM in the mixture as printed), 50 mM Tris-HCl pH 8.1, 20 mM MgCl2, 40 mM KCl, 30°C
Source text: as §1

[4] = substrate: CC(=O)SCCNC(=O)CCNC(=O)[C@H](O)C(C)(C)COP(=O)(O)OP(=O)(O)OC[C@H]1O[C@@H](n2cnc3c(N)ncnc32)[C@H](O)[C@@H]1OP(=O)(O)O; assay: purified protein; assay type: biochemical, Aspergillus fumigatus; conditions: 50 mM Tris-HCl pH 7.4, 0.2 mM NADH, 0.5 mM DTT, 30°C
[5] = target: the molecule itself; assay: crystal structure; apo and CoA-complexed AfERG10A; sitting drop at room temperature, 0.1 M HEPES (pH 7.0), 2 M ammonium sulfate, in the absence or presence of CoA; refined to 2.4 Å; four molecules in one asymmetric unit

Molecule	X-ray crystal structure of the complex, 2.4 Å [1]	Km [2]	kcat [2]	Km [3]	kcat [3]	Km [4]	kcat [4]	stoichiometry N [5]
CC(C)(COP(=O)(O)OP(=O)(O)OC[C@H]1O[C@@H](n2cnc3c(N)ncnc32)[C@H](O)[C@@H]1OP(=O)(O)O)[C@@H](O)C(=O)NCCC(=O)NCCS [CoA]	structures of apo- and CoA-complexed AfERG10A were determined							
B1		43 ± 9 µM	3 ± 0.2 s⁻¹	26 ± 5 µM	5 ± 0.2 s⁻¹	232 ± 49 µM	7 ± 0.4 s⁻¹	4

From paper PMC7082573, “Aspergillus fumigatus Mitochondrial Acetyl Coenzyme A Acetyltransferase as an Antifungal Target” (Applied and Environmental Microbiology, 2020)
